Key:
MERTK = MERTK (UniProt Q12866); assay: phosphorylation enrichment, bacterial display (enrichment ratio); higher = better substrate or ligand; peptides without Tyr show the background
Fer (mouse) = assay: as above
Jak2 = Jak2 (UniProt O60674); assay: as above
Fyn = Fyn (UniProt P06241); assay: as above
FGFR3 = FGFR3 (UniProt P22607); assay: as above
EPHB2 = EPHB2 (UniProt P29323); assay: as above
EPHB1 = EPHB1 (UniProt P54762); assay: as above
Hck = Hck (UniProt P08631); assay: as above
AncSZ = assay: as above
Fes = Fes (UniProt P07332); assay: as above
FGFR1 = FGFR1 (UniProt P11362); assay: as above
c-Src = assay: as above
c-Abl (mouse) = assay: as above
SHP2-C SH2 = assay: SH2 binding enrichment of the phosphorylated peptide, bacterial display (enrichment ratio); higher = better substrate or ligand; peptides without Tyr show the background
c-Src SH2 = assay: as above
Grb2 SH2 = Grb2 SH2 (UniProt P62993); assay: as above
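For SH2 binding enrichment of the phosphorylated peptide, bacterial display in this document: peptide library displayed on the E. coli surface as eCPX fusions, selected cells deep-sequenced, score is each peptide's frequency after selection divided by its frequency in the input.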
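For phosphorylation enrichment, bacterial display in this document: 11-residue human phosphosite peptides and single-mutation variants displayed on the E. coli surface, counted by deep sequencing, each peptide's frequency after selection divided by its frequency in the unselected input library; frequency after pTyr selection over input frequency; kinase dosed for 20-30% of maximal phosphorylation in three min.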

Chain of Hck (P08631 whole entry, looked up): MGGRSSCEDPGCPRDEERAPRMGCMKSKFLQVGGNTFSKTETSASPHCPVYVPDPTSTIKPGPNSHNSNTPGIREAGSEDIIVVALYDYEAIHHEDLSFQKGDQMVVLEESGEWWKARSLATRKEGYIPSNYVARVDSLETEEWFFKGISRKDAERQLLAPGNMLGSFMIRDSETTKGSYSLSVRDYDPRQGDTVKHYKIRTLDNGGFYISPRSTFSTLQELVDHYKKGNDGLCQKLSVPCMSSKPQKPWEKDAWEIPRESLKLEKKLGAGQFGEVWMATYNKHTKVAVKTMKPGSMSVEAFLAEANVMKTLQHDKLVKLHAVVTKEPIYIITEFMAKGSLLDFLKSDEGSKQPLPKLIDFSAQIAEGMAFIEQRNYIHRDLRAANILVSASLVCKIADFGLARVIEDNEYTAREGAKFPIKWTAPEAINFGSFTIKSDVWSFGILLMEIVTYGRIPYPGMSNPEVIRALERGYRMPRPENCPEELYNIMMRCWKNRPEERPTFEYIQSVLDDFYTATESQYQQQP
Chain of EPHB2 (P29323 whole entry, looked up): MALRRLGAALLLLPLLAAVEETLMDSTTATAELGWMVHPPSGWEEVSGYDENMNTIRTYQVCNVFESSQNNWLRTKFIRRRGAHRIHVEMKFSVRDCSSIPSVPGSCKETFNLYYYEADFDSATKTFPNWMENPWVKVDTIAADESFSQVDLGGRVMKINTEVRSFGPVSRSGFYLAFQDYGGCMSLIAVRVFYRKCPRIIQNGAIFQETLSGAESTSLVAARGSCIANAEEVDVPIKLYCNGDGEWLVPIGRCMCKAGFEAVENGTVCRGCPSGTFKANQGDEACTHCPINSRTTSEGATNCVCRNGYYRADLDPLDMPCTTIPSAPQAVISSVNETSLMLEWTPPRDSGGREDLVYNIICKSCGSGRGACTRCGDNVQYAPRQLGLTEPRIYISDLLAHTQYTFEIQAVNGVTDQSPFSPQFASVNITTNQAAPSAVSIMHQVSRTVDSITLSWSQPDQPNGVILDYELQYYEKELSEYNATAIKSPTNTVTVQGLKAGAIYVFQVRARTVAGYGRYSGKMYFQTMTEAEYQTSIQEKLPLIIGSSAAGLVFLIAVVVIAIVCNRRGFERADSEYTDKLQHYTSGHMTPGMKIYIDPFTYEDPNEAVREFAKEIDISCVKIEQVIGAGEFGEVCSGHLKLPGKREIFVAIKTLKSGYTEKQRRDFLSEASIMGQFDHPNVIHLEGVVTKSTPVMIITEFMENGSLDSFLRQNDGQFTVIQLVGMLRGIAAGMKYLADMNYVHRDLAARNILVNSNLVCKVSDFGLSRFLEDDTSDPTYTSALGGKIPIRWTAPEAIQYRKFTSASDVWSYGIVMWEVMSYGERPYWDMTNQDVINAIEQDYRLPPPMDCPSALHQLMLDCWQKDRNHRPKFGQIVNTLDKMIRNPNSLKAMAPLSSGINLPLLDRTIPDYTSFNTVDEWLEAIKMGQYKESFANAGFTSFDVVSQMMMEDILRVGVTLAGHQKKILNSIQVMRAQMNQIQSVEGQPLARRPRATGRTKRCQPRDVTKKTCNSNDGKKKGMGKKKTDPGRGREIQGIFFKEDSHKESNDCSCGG
Chain of FGFR1 (P11362 whole entry, looked up): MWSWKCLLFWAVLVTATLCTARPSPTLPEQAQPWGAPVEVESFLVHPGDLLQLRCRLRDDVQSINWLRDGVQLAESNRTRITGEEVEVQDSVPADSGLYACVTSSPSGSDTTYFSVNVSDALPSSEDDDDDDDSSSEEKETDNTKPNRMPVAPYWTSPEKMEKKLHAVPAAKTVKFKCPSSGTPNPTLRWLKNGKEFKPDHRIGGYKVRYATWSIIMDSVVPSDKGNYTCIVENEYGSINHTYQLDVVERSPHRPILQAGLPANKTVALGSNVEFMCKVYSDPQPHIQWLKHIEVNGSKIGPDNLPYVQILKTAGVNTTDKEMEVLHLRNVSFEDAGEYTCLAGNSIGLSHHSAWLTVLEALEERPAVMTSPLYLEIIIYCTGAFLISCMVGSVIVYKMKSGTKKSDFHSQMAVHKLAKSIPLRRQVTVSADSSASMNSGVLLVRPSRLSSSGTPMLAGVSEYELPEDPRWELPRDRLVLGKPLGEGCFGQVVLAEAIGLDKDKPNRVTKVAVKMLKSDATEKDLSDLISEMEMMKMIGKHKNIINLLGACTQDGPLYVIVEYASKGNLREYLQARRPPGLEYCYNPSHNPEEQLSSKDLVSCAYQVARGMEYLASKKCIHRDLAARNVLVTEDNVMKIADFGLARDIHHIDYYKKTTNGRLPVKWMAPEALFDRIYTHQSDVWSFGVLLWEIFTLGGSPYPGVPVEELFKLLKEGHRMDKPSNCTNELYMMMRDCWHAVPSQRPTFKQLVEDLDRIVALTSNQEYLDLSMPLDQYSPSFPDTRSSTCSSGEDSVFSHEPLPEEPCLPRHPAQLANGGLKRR
Chain of Fes (P07332 whole entry, looked up): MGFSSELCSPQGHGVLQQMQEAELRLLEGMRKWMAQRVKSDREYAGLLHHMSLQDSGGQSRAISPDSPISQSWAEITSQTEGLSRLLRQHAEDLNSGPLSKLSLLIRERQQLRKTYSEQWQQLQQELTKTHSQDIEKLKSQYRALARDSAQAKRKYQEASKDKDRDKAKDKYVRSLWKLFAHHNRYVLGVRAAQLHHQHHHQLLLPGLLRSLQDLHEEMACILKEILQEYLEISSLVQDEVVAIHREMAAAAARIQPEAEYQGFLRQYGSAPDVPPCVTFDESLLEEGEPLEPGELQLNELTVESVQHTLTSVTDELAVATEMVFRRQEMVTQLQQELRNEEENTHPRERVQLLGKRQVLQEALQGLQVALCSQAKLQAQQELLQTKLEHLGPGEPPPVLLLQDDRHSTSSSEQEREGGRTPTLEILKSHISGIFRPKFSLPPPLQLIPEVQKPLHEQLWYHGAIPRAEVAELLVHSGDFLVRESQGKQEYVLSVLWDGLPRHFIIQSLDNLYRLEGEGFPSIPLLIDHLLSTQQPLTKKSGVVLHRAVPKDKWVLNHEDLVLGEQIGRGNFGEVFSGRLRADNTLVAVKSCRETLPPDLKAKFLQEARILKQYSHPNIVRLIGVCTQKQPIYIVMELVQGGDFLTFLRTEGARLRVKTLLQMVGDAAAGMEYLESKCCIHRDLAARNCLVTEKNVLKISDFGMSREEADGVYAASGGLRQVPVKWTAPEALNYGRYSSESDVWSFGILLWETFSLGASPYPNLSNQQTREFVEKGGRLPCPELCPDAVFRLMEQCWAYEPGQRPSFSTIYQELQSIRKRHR
Chain of FGFR3 (P22607 whole entry, looked up): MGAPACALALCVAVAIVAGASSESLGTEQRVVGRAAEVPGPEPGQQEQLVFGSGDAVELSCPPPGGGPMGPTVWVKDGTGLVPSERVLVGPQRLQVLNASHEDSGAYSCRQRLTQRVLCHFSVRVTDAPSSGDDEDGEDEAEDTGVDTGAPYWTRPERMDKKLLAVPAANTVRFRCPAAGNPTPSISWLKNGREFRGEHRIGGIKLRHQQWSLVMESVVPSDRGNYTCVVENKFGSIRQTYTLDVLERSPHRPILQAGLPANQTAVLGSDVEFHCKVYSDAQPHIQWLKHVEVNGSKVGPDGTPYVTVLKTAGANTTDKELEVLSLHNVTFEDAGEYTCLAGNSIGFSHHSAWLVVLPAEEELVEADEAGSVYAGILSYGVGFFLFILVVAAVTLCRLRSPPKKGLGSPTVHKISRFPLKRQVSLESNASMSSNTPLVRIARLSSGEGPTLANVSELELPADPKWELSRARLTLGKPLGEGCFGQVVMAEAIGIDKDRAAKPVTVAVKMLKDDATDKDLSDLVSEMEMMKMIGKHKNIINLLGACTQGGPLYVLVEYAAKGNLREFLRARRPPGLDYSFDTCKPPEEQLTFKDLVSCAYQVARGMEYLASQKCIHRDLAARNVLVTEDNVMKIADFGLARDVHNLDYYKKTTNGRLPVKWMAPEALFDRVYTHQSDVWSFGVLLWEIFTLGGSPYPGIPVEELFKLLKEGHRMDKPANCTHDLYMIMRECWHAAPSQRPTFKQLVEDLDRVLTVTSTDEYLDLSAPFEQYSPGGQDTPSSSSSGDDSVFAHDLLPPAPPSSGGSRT
Chain of Fyn (P06241 whole entry, looked up): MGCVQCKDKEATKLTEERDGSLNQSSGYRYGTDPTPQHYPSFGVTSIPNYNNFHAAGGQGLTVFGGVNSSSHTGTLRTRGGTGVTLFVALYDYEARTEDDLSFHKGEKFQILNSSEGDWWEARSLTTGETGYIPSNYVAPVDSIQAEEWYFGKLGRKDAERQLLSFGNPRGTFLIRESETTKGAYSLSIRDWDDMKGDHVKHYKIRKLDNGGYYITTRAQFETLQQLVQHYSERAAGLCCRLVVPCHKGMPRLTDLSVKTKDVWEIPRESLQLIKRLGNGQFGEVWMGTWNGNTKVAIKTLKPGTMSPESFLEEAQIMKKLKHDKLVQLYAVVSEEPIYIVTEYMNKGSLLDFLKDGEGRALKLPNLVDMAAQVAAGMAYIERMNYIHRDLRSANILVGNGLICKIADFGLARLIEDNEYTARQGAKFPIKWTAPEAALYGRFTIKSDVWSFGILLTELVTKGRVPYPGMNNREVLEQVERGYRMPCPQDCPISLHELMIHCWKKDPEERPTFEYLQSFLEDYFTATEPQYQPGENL

| SH2 binding enrichment (SHP2-C SH2) | SH2 binding enrichment (c-Src SH2) | SH2 binding enrichment (Grb2 SH2) | Sequence | phosphorylation enrichment (MERTK) | phosphorylation enrichment (Fer (mouse)) | phosphorylation enrichment (Jak2) | phosphorylation enrichment (Fyn) | phosphorylation enrichment (FGFR3) | phosphorylation enrichment (EPHB2) | phosphorylation enrichment (EPHB1) | phosphorylation enrichment (Hck) | phosphorylation enrichment (AncSZ) | phosphorylation enrichment (Fes) | phosphorylation enrichment (FGFR1) | phosphorylation enrichment (c-Src) | phosphorylation enrichment (c-Abl (mouse)) |
| --- | --- | --- | --- | --- | --- | --- | --- | --- | --- | --- | --- | --- | --- | --- | --- | --- |
| 0.844 | 0.543 | 0.968 | LVPAWYIGFLC [KCNQ2_Y237_T234P] | 0.361 | 0.56 | 1.1 | 0.487 | 0.812 | 0.625 | 0.599 | 0.516 | 1.25 | 1.28 | 0.502 | 0.51 | 0.804 |
| 1.39 | 1.9 | 1.07 | LISVSYDDWDY [GRIN2A_Y281] | 0.691 | 4.25 | 1.35 | 0.773 | 1.05 | 0.827 | 0.813 | 0.666 | 2.2 | 1.92 | 0.901 | 0.652 | 1.01 |
| 0.348 | 0.435 | 0.786 | RSRSSYTHSLN [MYCT1_Y116_G119S] | 0.762 | 0.381 | 0.948 | 0.63 | 0.514 | 0.537 | 0.504 | 0.495 | 0.832 | 0.755 | 0.575 | 0.938 | 0.97 |
| 0.891 | 0.554 | 0.931 | ESTPLYPMLFG [SCLY_Y280_F276S] | 2.23 | 0.507 | 1.09 | 0.6 | 8.03 | 0.508 | 0.686 | 0.503 | 0.768 | 0.969 | 11.7 | 0.47 | 0.619 |
| 0.333 | 0.535 | 0.72 | RRIEKYVDQGK [IRAK3_Y61_H57R] | 0.571 | 0.326 | 0.419 | 0.516 | 0.416 | 0.322 | 0.615 | 0.445 | 0.88 | 0.662 | 0.736 | 0.483 | 0.56 |
| 0.782 | 0.81 | 1.05 | FFWDGYMPRQF [GSS_Y270_R267W_YF] | 0.398 | 0.504 | 3.7 | 0.349 | 0.735 | 0.551 | 0.601 | 0.471 | 1.12 | 1.19 | 0.481 | 0.43 | 0.734 |
| 1.41 | 1.09 | 1.1 | TFRPPYFHRNC [HGD_Y333_YF] | 1.03 | 0.626 | 0.717 | 0.473 | 0.771 | 0.946 | 0.522 | 0.661 | 0.733 | 0.869 | 0.617 | 0.454 | 0.635 |
| 6.94 | 0.907 | 1.01 | GRVYVYHLSEQ [ITGAE_Y551_R552H] | 0.386 | 0.531 | 0.994 | 0.835 | 0.712 | 0.548 | 0.645 | 0.602 | 1.03 | 1.13 | 0.559 | 0.799 | 0.646 |
| 0.245 | 0.368 | 0.659 | RYVSRYIYNRE [HLA-DQB1_Y62_T60S] | 0.993 | 0.844 | 0.92 | 0.829 | 0.739 | 0.95 | 0.922 | 0.551 | 1.29 | 1.11 | 0.658 | 1.08 | 0.666 |
| 0.952 | 0.705 | 0.997 | PSFSEYASVQV [SIRPA_Y496] | 0.474 | 3.49 | 1.02 | 2.49 | 1.05 | 8.42 | 6.25 | 1.93 | 1.11 | 0.801 | 1.05 | 2.35 | 4.02 |

Continued, sequence first:

| Sequence | SH2 binding enrichment (SHP2-C SH2) | SH2 binding enrichment (c-Src SH2) | SH2 binding enrichment (Grb2 SH2) | phosphorylation enrichment (MERTK) | phosphorylation enrichment (Fer (mouse)) | phosphorylation enrichment (Jak2) | phosphorylation enrichment (Fyn) | phosphorylation enrichment (FGFR3) | phosphorylation enrichment (EPHB2) | phosphorylation enrichment (EPHB1) | phosphorylation enrichment (Hck) | phosphorylation enrichment (AncSZ) | phosphorylation enrichment (Fes) | phosphorylation enrichment (FGFR1) | phosphorylation enrichment (c-Src) | phosphorylation enrichment (c-Abl (mouse)) |
| --- | --- | --- | --- | --- | --- | --- | --- | --- | --- | --- | --- | --- | --- | --- | --- | --- |
| DEEYEYMNRRR [ERBB3_Y1199] | 0.701 | 0.619 | 0.837 | 0.37 | 0.466 | 0.93 | 0.483 | 0.629 | 0.503 | 0.465 | 0.546 | 1.57 | 0.986 | 0.501 | 0.454 | 0.65 |
| AKNKDYMSFIR [GNE_Y197_I200F] | 1.23 | 0.754 | 1.09 | 0.465 | 0.34 | 0.647 | 0.61 | 0.478 | 0.648 | 0.812 | 0.946 | 0.606 | 0.646 | 0.478 | 0.972 | 0.661 |
| FSDPDYLAAVD [GLB1_Y154_S149F] | 0.551 | 0.417 | 0.746 | 0.42 | 0.475 | 0.928 | 0.504 | 0.691 | 0.556 | 0.58 | 0.702 | 1.45 | 0.939 | 0.479 | 0.381 | 0.577 |
| PNEAVYTKMMT [G6PD_Y401] | 0.811 | 2 | 0.899 | 1.48 | 6.07 | 0.838 | 2.31 | 0.571 | 0.479 | 0.506 | 1.96 | 1 | 0.972 | 0.555 | 4.58 | 0.674 |
| MKKKTYAMGGG [GAN_Y424_I423T] | 0.233 | 0.438 | 0.728 | 0.578 | 0.567 | 0.865 | 0.428 | 0.531 | 1.09 | 0.857 | 0.908 | 0.705 | 0.862 | 0.653 | 1 | 0.761 |
| AIIGIYILRDD [CDH23_Y2949] | 1.11 | 1.04 | 1.47 | 0.546 | 0.676 | 1.35 | 1.18 | 0.753 | 0.788 | 0.831 | 0.951 | 1.24 | 1.5 | 0.484 | 2.76 | 0.965 |
| RELGEYPLAEY [ALDH1A3_Y492_A493P] | 0.291 | 2.46 | 0.795 | 0.516 | 0.593 | 1.97 | 0.582 | 0.685 | 0.495 | 0.484 | 0.505 | 0.982 | 1.41 | 0.688 | 0.492 | 1.17 |
